# According to publication PMC4686813:
# Biological target: Sec61β (dog (endogenous in canine pancreatic microsomes)) (UniProt P60467)
# Assay: cross-linking; BMH on microsomes stripped of ribosomes with EDTA and high salt (EKRM); western blot with anti-Sec62; also with purified canine ribosomes added back
# UniProt P60467, sequence (P60467 whole entry): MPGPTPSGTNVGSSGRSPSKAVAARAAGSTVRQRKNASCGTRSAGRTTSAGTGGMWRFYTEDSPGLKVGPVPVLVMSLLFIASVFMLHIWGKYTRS
substance,measurement,value
Sec62 (from UniProt P82009 1-39) (natural protein),percent of Sec62 cross-linked to Sec61β,> 50%
